According to PMC12751054, “Investigating the conformational landscape of human histidine-rich glycoprotein using amide HDX-MS” (Biochemical Journal, 2025):

Columns and labels:
[1] = molecular target: Histidine-rich glycoprotein (HRG), enzymatically deglycosylated, purified from human pooled plasma (human) (UniProt P04196); experiment: mass photometry; HRG at 200 nM in 50 mM Tris-HCl, 140 mM NaCl, 2 mM EDTA, pH 7.4; TwoMP (Refeyn); monomer and dimer
[2] = molecular target: Histidine-rich glycoprotein (HRG), enzymatically deglycosylated, purified from human pooled plasma (human) (UniProt P04196); experiment: mass photometry; HRG at 50 nM in 50 mM Tris-HCl, 140 mM NaCl, 2 mM EDTA, pH 7.4; TwoMP (Refeyn); monomer and dimer
[3] = molecular target: the molecule itself; experiment: as above

Molecule	stoichiometry N [1]	stoichiometry N [2]	stoichiometry N [3]
Histidine-rich glycoprotein (HRG), enzymatically deglycosylated, purified from human pooled plasma (from UniProt P04196 19-525) (natural protein)	2	2	
Histidine-rich glycoprotein (HRG), native (fully glycosylated), purified from human pooled plasma (natural protein, UniProt P04196 19-525, looked up, N-linked glycans at Asn63, Asn125, Asn202 and Asn344; O-linked glycans at Thr273 and Thr274, Histidine-rich glycoprotein, human, UniProt P04196; printed residue numbers run to 525; Pooled plasma; also called native HRG; plasma-derived human HRG) VSPTDCSAVEPEAEKALDLINKRRRDGYLFQLLRIADAHLDRVENTTVYYLVLDVQESDCSVLSRKYWNDCEPPDSRRPSEIVIGQCKVIATRHSHESQDLRVIDFNCTTSSVSSALANTKDSPVLIDFFEDTERYRKQANKALEKYKEENDDFASFRVDRIERVARVRGGEGTGYFVDFSVRNCPRHHFPRHPNVFGFCRADLFYDVEALDLESPKNLVINCEVFDPQEHENINGVPPHLGHPFHWGGHERSSTTKPPFKPHGSRDHHHPHKPHEHGPPPPPDERDHSHGPPLPQGPPPLLPMSCSSCQHATFGTNGAQRHSHNNNSSDLHPHKHHSHEQHPHGHHPHAHHPHEHDTHRQHPHGHHPHGHHPHGHHPHGHHPHGHHPHCHDFQDYGPCDPPPHNQGHCCHGHGPPPGHLRRRGPGKGPRPFHCRQIGSVYRLPPLRKGEVLPLPEANFPSFPLPHHKHPLKPDNQPFPQSVSESCPGKFKSGFPQVSMFFTHTFPK			2
